Measured values published in patent US11857697B2, “Compositions and methods for obtaining 3-dimensional lung-like epithelium and related uses thereof” (THE REGENTS OF THE UNIVERSITY OF MICHIGAN, priority 2017, dated 2024).

Key:
[1] = test system: hPSC-derived human lung organoids (HLOs); experiment: Marker expression (QRT-PCR, immunofluorescence) in HLOs; type: cell-based; details: 42 days 3F then 26 days FGF7 only
Description: Based on results in the mouse showing that FGF7 was permissive for differentiation (FIG. 1), experiments were conducted that hypothesized that removing CHIR-99021 and RA from HLOs grown in 3F media would reduce the number of progenitor cells and increase differentiation of mature cell types within HLO cultures. Foregut spheroids were collected and grown in 3F media for 42 days and were cultured for an additional 26 days in 3F media (control) or media containing FGF7 only (FIG. 10A). […] At the end of the experiment, cultures were collected and assessed for gene and protein expression.
RNA was extracted using the MagMAX-96 Total RNA Isolation System (Life Technologies). RNA quality and concentration was determined on a Nanodrop 2000 spectrophotometer (Thermo Scientific). 100 ng of RNA was used to generate a cDNA library using the SuperScript VILO cDNA master mix kit (Invitrogen) according to manufacturer's instructions. qRT-PCR analysis was conducted using Quantitect SYBR Green Master Mix (Qiagen) on a Step One Plus Real-Time PCR system (Life Technologies). Expression was calculated as a change relative to GAPDH expression using arbitrary units, which were calculated by the following equation: [2^(GAPDH Ct−Gene Ct)]×10,000. A Ct value of 40 or greater was considered not detectable. A list of primer sequences used can be found in Table 1.
Mouse bud, human bud, and HLO tissue was fixed in 4% Paraformaldehyde (Sigma) for 2 hours and rinsed in PBS overnight. Tissue was dehydrated in an alcohol series, with 30 minutes each in 25%, 50%, 75% Methanol:PBS/0.05% Tween-20, followed by 100% Methanol, and then 100% Ethanol. Tissue was processed into paraffin using an automated tissue processor (Leica ASP300). Paraffin blocks were sectioned 5-7 uM thick, and immunohistochemical staining was performed as previously described (Spence et al., 2009). A list of antibodies, antibody information and concentrations used can be found in Table 2. PAS Alcian blue staining was performed using the Newcomer supply Alcian Blue/PAS Stain kit (Newcomer Supply, Inc.) according to manufacturer's instructions.

[2] = test system: hPSC-derived foregut spheroids / HLOs; experiment: hPSC-derived foregut spheroid / human lung organoid (HLO) culture: growth and phenotype; type: cell-based
Description: Given the robustness by which 3F media supported mouse and human lung bud progenitor growth and identity, experiments sought to determine whether these culture conditions could promote a distal epithelial lung progenitor-like population from hPSCs. NKX2.1+ ventral foregut spheroids were generated as previously described (Dye et al., 2016a; 2015), and were cultured in a droplet of Matrigel and overlaid with media containing 3F (FGF7, CHIR-99021, RA). Spheroids were considered to be “day 0” on the day they were placed in Matrigel. […] Epithelial structures grew first as cystic structures over the course of 2 weeks, followed by a period of epithelial folding that occurred between weeks 3-4 (FIG. 7A; FIG. 8C-D). Around 5-6 weeks in culture, the epithelial structures began forming bud-like structures that resembled human fetal epithelial distal bud tips that underwent bifurcations (FIG. 7A-B; FIG. 8D—bottom row). HLOs were passaged by gently removing Matrigel and replating in a fresh droplet while preserving structural integrity. In this way, HLOs were able to grow for over 16 weeks in culture while retaining their original shape. HLOs could also be passaged using mechanical shear through a 27-gauge needle, followed by embedding in fresh Matrigel and 3F media (FIG. 8E). Following passage, HLOs robustly re-established many small cysts that were expanded and serially passaged every 7-10 days many times (FIG. 8F).
The University of Michigan Human Pluripotent Stem Cell Research Oversight (hPSCRO) Committee approved all experiments using human embryonic stem cell (hESC) lines. hESC line UM63-1 (NIH registry #0277) was obtained from the University of Michigan and hESC line H9 (NIH registry #0062) was obtained from the WiCell Research Institute. ES cell lines were routinely karyotyped to ensure normal karyotype and ensure the sex of each line (H9-XX, UM63-1-XX). Cells are monitored for mycoplasma infection monthly using the MycoAlert Mycoplasma Detection Kit (Lonza). […]

[3] = proportion of organoids in the medium

B1: Recombinant Human Fibroblast Growth Factor 7 (protein, UniProt P21781 32-194, looked up)
Fibroblast growth factor 7: CNDMTPEQMATNVNCSSPERHTRSYDYMEGGDIRVRRLFCRTQWYLRIDKRGKVKGTQEMKNNYNIMEIRTVAVGIVAIKGVESEFYLAMNKEGKLYAKKECNEDCNFKELILENHYNTYASAKWTHNGGEMFVALNQKGIPVRGKKTKKEQKTAHFLPMAIT
notes: Recombinant human growth factor from R&D systems, used at 10 ng/mL unless otherwise noted
AECI marker HOPX gene expression ([1]; versus 3F): increased gene expression
AECII marker SFTPC protein and mRNA expression ([1]; versus 3F): increase in both protein and mRNA expression
FOXJ1 mRNA expression (QRT-PCR) ([1]; versus 3F): increased significantly
MUC5AC gene expression (QRT-PCR) ([1]; versus 3F): significant increase
P63 mRNA expression (QRT-PCR) ([1]; versus 3F): significant increase in mRNA expression
SOX2 transcript (QRT-PCR) ([1]; versus 3F): significant increase
SOX9 transcript (QRT-PCR) ([1]; versus 3F): no change
Increase of SCGB1A1 mRNA level over 3F controls ([1]; not statistically significant): ~100 fold
HLO morphology after switch to FGF7 only ([2]; 42 days 3F then 26 days FGF7 only, compared to 3F HLOs): lost the peripheral bud-like regions
HLOs with 'dense' phenotype [2, 3]: 90%
HLOs with clear epithelial phenotype [2, 3]: 5%
